Assay results reported in publication PMC4070910, “Cathepsin S Signals via PAR2 and Generates a Novel Tethered Ligand Receptor Agonist” (PLoS ONE, 2014).
Entries after “also recorded” stand apart in the source; their conditions may differ.

What was measured:
[1] = tested on: NHEKs which endogenously express PAR2; test: Calcium imaging in normal human epidermal keratinocytes (NHEKs); type: cell-based
Description: HeLa cells were obtained from the ATCC and maintained in DMEM supplemented with fetal bovine serum (Fisher Biochemicals), L-glutamine, penicillin and streptomycin. Normal human epidermal keratinocytes (NHEKs) were harvested from neonatal foreskin and maintained in Keratinocyte Serum-Free media supplemented with epidermal growth factor, bovine pituitary extract, L-glutamine, penicillin and streptomycin. All reagents were obtained from Invitrogen unless otherwise noted.
(§1) Human PAR2 cDNA was cloned as an Xho I-Hind III fragment (1206 bp) into pcDNA3.1(−). 10 µg of DNA were diluted into 0.5 ml of DMEM and mixed with 0.5 ml of DMEM containing 10 µl of Lipofectamine 2000 transfection reagent and incubated at room temperature for 20 minutes. HeLa cells were grown to confluence, trypsinized and 1×10^6 cells were pelleted in a 15 ml tube by centrifugation at 1000 rpm for 5 minutes. The DMEM-Lipofectamine 2000-DNA mixture (1 ml) was added to the cell pellet, resuspended gently and incubated at room temperature for 20 minutes. Four ml of complete DMEM with 10% FBS were added to the tube, mixed by inverting the tube several times, plated into a 96-well glass bottom plate at 20,000 cells/well, and placed in a 37°C CO2 incubator. HeLa cells transfected with vector alone or salmon sperm DNA (shown in the figures) were plated as a control. The medium was aspirated two days after transfection. Fura-2 was used as a ratiometric calcium-sensitive indicator as follows. 100 µl of complete DMEM containing 2 µM of Fura-2 were added to each well and left at room temperature in the dark for 1 hr. […]
(§2) Imaging was performed using a Zeiss Axiovert 200 M microscope platform equipped with a flipping filter wheel for ratiometric imaging. […] The software later analyzed all images taken during each excitation period. Typically, ratiometric changes were measured in 10–20 cells in each image. An average of the fluorescence of the cells in each image was calculated and plotted against time in seconds.

[2] = tested on: salmon sperm transfected HeLa cells; test: IP1 (IP-One HTRF) assay in salmon sperm DNA-transfected HeLa cells; type: cell-based; settings: cathepsin S 1 µM, 1 hour, 37°C
Protocol: To determine the effect of PAR2 activation on Gq stimulation, we measured IP1, a downstream metabolite of IP3, using the IP-One HTRF assay from Cis Bio, Medford, MA. HeLa cells were transfected with salmon sperm DNA or PAR2 cDNA as described above, plated in 10 cm culture dishes and incubated at 37°C with 5% CO2. After 24 hours, the cells were trypsinized, counted, plated into 96-well plates at 80,000 cells/well and incubated for another 24 hours. The medium was replaced with a stimulation buffer containing LiCl, per the instructions of the manufacturer. Ligands, including cathepsin S (1 µM), KVDGTS (100 µM) and SLIGRL (10 µM) were added to wells and incubated at 37°C for 1 hour and IP1 levels determined. This assay was performed on multiple wells containing each ligand on three occasions. Error bars represent SEM.

[3] = tested on: PKC (βII Ser660) phosphorylation in PAR2-transfected HeLa cells; test: Western blot for p-PKC (Ser660) in PAR2-transfected HeLa cells; type: cell-based, human; settings: 10 minutes, room temperature; SLIGRL 10 µM, SLIGKVDGTS 10 µM, KVDGTS 100 µM, cathepsin S 1 µM
Protocol: HeLa cells were transfected with PAR2 plasmid DNA as described above. Untransfected HeLa cells were plated as a control. Forty-eight hours after transfection, cells were rinsed with PBS three times. Transfected HeLa cells were incubated with either SLIGRL (10 µM), SLIGKVDGTS (10 µM), KVDGTS (100 µM), or cathepsin S (1 µM) at room temperature for 10 minutes. Untransfected HeLa cells were treated with SLIGRL (10 µM) in a similar manner. A subset of transfected HeLa cells remained untreated and served as a negative control. After incubation, cells were harvested, pelleted and lysed by sequential freeze-thaw cycles. Cell lysates were centrifuged at 4°C for 15 minutes. Supernatants were collected and protein concentrations were determined by Bradford assay. Equal amounts of cell lysates were loaded onto NuPAGE Novex Bis-Tris mini gels, electrophoresed and transferred to nitrocellulose membranes using standard protocols. The blot was first probed with rabbit anti-phospho-PKC (βII Ser660) antibody (Cell Signalling Technology, Danvers, MA), and later reprobed with a mouse anti-actin antibody to identify the control actin band at 42 kDa. Primary antibodies were labeled with HRP-conjugated donkey anti-rabbit antibody and HRP-conjugated donkey anti-mouse antibody, respectively, followed by detection of the position of the antigen on the blot.

[4] = tested on: PAR2M1 (leucine38 to alanine); test: Calcium imaging in HeLa cells transfected with PAR2M1; type: cell-based, human; settings: cathepsin S 2 µM, KVDGTS 100 µM
Protocol: as §1, with “follows.” for “follows. 100 µl of complete DMEM containing 2 µM of Fura-2 were added to each well and left at room temperature in the dark for 1 hr.”
as §2, with “seconds. […]” for “seconds.”

B1: cathepsin S: Recombinant human cathepsin S, cysteine protease, expressed in E.coli, refolded and activated (protein, UniProt P25774 115-331, looked up)
Cathepsin S: LPDSVDWREKGCVTEVKYQGSCGACWAFSAVGALEAQLKLKTGKLVSLSAQNLVDCSTEKYGNKGCNGGFMTTAFQYIIDNKGIDSDASYPYKAMDQKCQYDSKYRAATCSKYTELPYGREDVLKEAVANKGPVSVGVDARHPSFFLYRSGVYYEPSCTQNVNHGVLVVGYGDLNGKEYWLVKNSWGHNFGEEGYIRMARNKGNHCGIASFPSYPEI
calcium response in NHEKs (in words) ([1]; KVDGTS 100 µM, cathepsin S 2 µM): activated NHEKs | calcium response to the substance as second agent after KVDGTS (in words) ([1]; NHEKs, KVDGTS 100 µM then cathepsin S 2 µM, second agent at 300 s): attenuated | effect as first agent on calcium response to second agent (in words) ([1]; NHEKs, KVDGTS 100 µM, cathepsin S 2 µM, second agent at 300 s): abolishes the response to the subsequent addtion of KVDGTS | IP1 level in salmon sperm transfected cells (in words) [2]: no effect above baseline IP1 levels | PKC Ser660 phosphorylation (in words) [3]: induce PKC Ser660 phosphorylation | calcium response on PAR2M1 (in words) [4]: induced normal calcium responses; also recorded: able to stimulate native PAR2 and PAR2M1
